Data published in PMC9953421, “Regulation of CRISPR-Associated Genes by Rv1776c (CasR) in Mycobacterium tuberculosis”.

B1: casRp1 (dsDNA)
DNA 1: AATAAGTAAGGCTTGTGTCTCACTATGA
DNA 2: TCATAGTGAGACACAAGCCTTACTTATT
B2: csm6p1 (dsDNA)
DNA 1: CGATAGTTGGCCCAATTGTCTATCTGGGC
DNA 2: GCCCAGATAGACAATTGGGCCAACTATCG

Biological target: T1, CasR (Rv1776c) (UniProt O33179 1-186)
T1 sequence: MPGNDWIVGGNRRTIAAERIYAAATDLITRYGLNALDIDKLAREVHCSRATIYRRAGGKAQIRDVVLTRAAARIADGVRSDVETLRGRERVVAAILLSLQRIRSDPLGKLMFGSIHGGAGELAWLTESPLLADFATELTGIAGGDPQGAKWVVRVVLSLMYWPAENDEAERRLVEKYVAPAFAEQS
Experiment: EMSA; 0-2 uM protein
Conditions: protein: recombinant, tags: N-terminal His (pET28a), chain copies: 2

Row | Binder | binding result (blunt) | binding result
1 | B1 | binds | 
2 | B2 |  | binds
